In article doi:10.1101/2025.01.22.634229, “Computationally designed stem-epitope mimetics elicit broadly reactive antibodies” (bioRxiv, 2025):

Legend:
Details in all cases: both partners purified
FI6-focused_03 = molecular target: T1, FI6-focused_03 (synthetic design on Bacteroides …); test: SPR
T1 construct: also called FI6-focused design_03; design_03 scaffold; source: E. coli BL21 (DE3), purified (Ni-NTA, SEC)
T1 chain: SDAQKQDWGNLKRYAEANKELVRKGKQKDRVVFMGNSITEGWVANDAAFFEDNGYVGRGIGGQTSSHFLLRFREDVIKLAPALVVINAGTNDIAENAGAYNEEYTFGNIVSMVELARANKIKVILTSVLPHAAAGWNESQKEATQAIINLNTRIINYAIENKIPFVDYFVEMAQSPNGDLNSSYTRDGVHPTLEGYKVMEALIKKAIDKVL

FI6-focused_04 = molecular target: T2, FI6-focused_04 (synthetic design on Bacteroides …); test: SPR; Biacore 8K, HBS-EP+; ligand on a CM5 chip by amine coupling, named FI6 Fab in the legend of Figure 2A and 2D (the methods say IgG); monomeric design as analyte (62.5 nM to 7.8 nM for FI6-focused_04; 5 μM to 312.5 nM for stem-mimetic_01); 1:1 Langmuir fit
T2 construct: also called FI6-focused design_04; FI6-focused design; source: E. coli BL21 (DE3), purified (Ni-NTA, SEC)
T2 chain: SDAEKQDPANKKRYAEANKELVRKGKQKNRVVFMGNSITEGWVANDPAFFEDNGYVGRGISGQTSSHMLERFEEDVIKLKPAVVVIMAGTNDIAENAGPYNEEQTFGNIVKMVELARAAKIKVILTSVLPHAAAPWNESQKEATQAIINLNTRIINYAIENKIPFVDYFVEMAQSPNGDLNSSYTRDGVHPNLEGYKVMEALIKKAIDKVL

stem-mimetic_01 = molecular target: T3, stem-mimetic_01 (synthetic design on Mus musculus ApoE …, chimera); test: as above
T3 construct: source: E. coli BL21 (DE3), purified (Ni-NTA, SEC)
T3 chain: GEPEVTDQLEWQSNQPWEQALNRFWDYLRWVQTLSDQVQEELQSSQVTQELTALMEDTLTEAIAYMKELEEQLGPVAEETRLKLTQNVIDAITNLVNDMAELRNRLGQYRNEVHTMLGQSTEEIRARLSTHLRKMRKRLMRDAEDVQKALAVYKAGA

B1: FI6 antibody (IgG) (antibody, V domains shown)
VH: QVQLVESGGGVVQPGRSLRLSCAASGFTFSTYAMHWVRQAPGKGLEWVAVISYDANYKYYADSVKGRFTISRDNSKNTLYLQMNSLRAEDTAVYYCAKDSQLRSLLYFEWLSQGYFDYWGQGTLVTVSS
VL: DIVMTQSPDSLAVSLGERATINCKSSQSVTFNYKNYLAWYQQKPGQPPKLLIYWASTRESGVPDRFSGSGSGTDFTLTISSLQAEDVAVYYCQQHYRTPPTFGQGTVEIK
notes: also called FI6 Ab; source: Expi293, purified (protein A, SEC)
Kd (FI6-focused_03): 0.26 nM

B2: FI6 Fab (Fab, V domains shown)
VH: QVQLVESGGGVVQPGRSLRLSCAASGFTFSTYAMHWVRQAPGKGLEWVAVISYDANYKYYADSVKGRFTISRDNSKNTLYLQMNSLRAEDTAVYYCAKDSQLRSLLYFEWLSQGYFDYWGQGTLVTVSS
VL: DIVMTQSPDSLAVSLGERATINCKSSQSVTFNYKNYLAWYQQKPGQPPKLLIYWASTRESGVPDRFSGSGSGTDFTLTISSLQAEDVAVYYCQQHYRTPPTFGQGTVEIK
Kd (FI6-focused_04): 6 nM | Kd (stem-mimetic_01): 44 nM
